Experimental findings from patent publication US20240352434, “COMPOSITIONS COMPRISING A VARIANT CAS12I3 POLYPEPTIDE AND USES THEREOF” (Arbor Biotechnologies, Inc., published 2024) are described below.

Where a chain is given by its changes, count along the chain named.

The labels stand for the following.
B1: EMX1_T5 crRNA ; EMX1_T5 target (ssRNA ; dsDNA)
RNA: AUAGUGUGUCCUUAGUUGACAUUAUUAUUCCCAUAGGGAAGG
DNA 1: TATTATTCCCATAGGGAAGG
DNA 2: CCTTCCCTATGGGAATAATA
B2: VEGFA_T2 crRNA ; VEGFA_T2 target (ssRNA ; dsDNA)
RNA: AUAGUGUGUCCUUAGUUGACAUAAUCCUCCACCAGUCAUGGU
DNA 1: AATCCTCCACCAGTCATGGT
DNA 2: ACCATGACTGGTGGAGGATT
B3: AAVS1_T3 crRNA ; AAVS1_T3 target (ssRNA ; dsDNA)
RNA: AUAGUGUGUCCUUAGUUGACAUGUGAGAAUGGUGCGUCCUAG
DNA 1: GTGAGAATGGTGCGTCCTAG
DNA 2: CTAGGACGCACCATTCTCAC

The target in one data set is T1, Cas12i3 S536R N711R S801R (Unidentified, S536R,N711R,S801R).
T1 chain: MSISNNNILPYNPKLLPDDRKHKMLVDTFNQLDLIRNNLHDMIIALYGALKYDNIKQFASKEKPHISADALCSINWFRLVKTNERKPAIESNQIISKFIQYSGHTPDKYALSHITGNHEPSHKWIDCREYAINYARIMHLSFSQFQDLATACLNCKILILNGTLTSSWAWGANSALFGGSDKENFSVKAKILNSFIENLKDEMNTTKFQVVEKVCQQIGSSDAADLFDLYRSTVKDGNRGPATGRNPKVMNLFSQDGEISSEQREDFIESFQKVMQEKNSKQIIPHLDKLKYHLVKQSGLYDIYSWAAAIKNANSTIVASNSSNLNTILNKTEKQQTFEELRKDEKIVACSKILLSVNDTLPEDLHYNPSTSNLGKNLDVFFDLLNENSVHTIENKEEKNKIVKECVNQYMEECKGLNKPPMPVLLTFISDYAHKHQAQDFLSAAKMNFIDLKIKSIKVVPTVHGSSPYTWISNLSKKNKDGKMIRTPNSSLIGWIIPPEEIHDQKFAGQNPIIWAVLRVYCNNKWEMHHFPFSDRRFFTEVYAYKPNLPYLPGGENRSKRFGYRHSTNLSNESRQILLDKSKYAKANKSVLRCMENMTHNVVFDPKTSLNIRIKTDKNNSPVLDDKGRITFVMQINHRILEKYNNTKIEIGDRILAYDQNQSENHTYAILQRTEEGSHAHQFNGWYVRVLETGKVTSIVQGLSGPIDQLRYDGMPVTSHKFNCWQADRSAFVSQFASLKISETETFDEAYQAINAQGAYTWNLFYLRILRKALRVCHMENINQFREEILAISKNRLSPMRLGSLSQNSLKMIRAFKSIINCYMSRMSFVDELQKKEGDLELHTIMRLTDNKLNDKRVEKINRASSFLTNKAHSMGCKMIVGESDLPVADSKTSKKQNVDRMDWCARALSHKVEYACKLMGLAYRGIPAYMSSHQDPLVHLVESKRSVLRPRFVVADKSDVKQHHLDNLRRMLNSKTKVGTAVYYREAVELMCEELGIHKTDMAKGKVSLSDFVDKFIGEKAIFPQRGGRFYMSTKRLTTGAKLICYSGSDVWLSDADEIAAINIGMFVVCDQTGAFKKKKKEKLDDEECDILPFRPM
Briefly: cell_activity; fold change in % indels, HEK293T; PAM not stated in example. How it is done: (§1) Approximately 16 hours prior to transfection, 100 μl of 25,000 HEK293T cells in DMEM/10% FBS+Pen/Strep were plated into each well of a 96-well plate. On the day of transfection, the cells were 70-90% confluent. For each well to be transfected, a mixture of 0.5 μl of Lipofectamine 2000 and 9.5 μl of Opti-MEM was prepared and then incubated at room temperature for 5-20 minutes (Solution 1). […] In the case of negative controls, the crRNA was not included in Solution 2. The solution 1 and solution 2 mixtures were mixed by pipetting up and down and then incubated at room temperature for 25 minutes. Following incubation, 20 μL of the Solution 1 and Solution 2 mixture were added dropwise to each well of a 96 well plate containing the cells. 72 hours post transfection, cells are trypsinized by adding 10 μL of TrypLE to the center of each well and incubated for approximately 5 minutes. 100 μL of D10 media was then added to each well and mixed to resuspend cells. The cells were then spun down at 500 g for 10 minutes, and the supernatant was discarded. QuickExtract buffer was added to ⅕ the amount of the original cell suspension volume. Cells were incubated at 65° C. for 15 minutes, 68° C. for 15 minutes, and 98° C. for 10 minutes.
(§2) Samples for Next Generation Sequencing were prepared by two rounds of PCR. The first round (PCR1) was used to amplify specific genomic regions depending on the target. PCR1 products were purified by column purification. Round 2 PCR (PCR2) was done to add Illumina adapters and indexes. Reactions were then pooled and purified by column purification. Sequencing runs were done with a 150 cycle NextSeq v2.5 mid or high output kit.
In the case of B1, the binding signal was 1.68 fold of wild-type.
In the case of B2, the binding signal is 2.55 fold of wild-type.
The same measure, in the same setting: then B3, with 2.1 fold of wild-type.

Another data set addresses T2, Cas12i3 R565G (Unidentified, R565G).
T2 chain: T1 chain with R536S, R565G, R711N, R801S
Described as above. How it is done:
as §1, §2
B1: the binding signal is 1.21 fold of wild-type.
On the same count and under the same terms, then B2, with 0.73 fold of wild-type; and B3, with 1.86 fold of wild-type.
